Experimental data from the DeepSol protein solubility set.

Assay: soluble on expression in E. coli; label from the status in PepcDB or PDB records

Row | Sequence | soluble on expression in E. coli
1 | MKVERGDVIRLHYTGRVKETGQIFDTTYEEVAKEAGIYNPKGIYGPVPIIVGAGHVISGLDKRLVGLEVGKKYTLEVPPEEGFGLRDPKLIKVFTMGQFRKQGIVPFPGLEVEVTTDNGRKMKGRVITVSGGRVRVDFNHPLAGKTLIYEVEIVEKIEDPIEKIKALIELRLPMIDRDKVIIEVGEKDVKVNFGEQDVDPKTLILGEILLESDIKFLGYEKVEFKPSVEELLRPKQEEPVEEEKKEEQEESEEAQSS | soluble
2 | MSFAQQKLSELAVSIPGATKIFREYDLDFCCGGSVLLEVAAQQKNLNLAEIEKRLTDLQQSKAENNDKDWTSASYAEMIDHIITRFHNRHREQLPELITLAEKVENIHGDRDDCPIGVVAQLEKIYAELSQHLMKEEQILFPMIKMGNYAMASMPIRVMEMEHDEAGQDVEVIKSLTNNCTPPADACFSWKALYSGINEFIDDLMHHIHLENNILFPRVLNEK | not soluble
3 | GPGSMERVRIRYVLTGACPPTYSGRVVHDFVALKQPNGCDTTIEMVKERFRSNWPADVKELAESISESGIRVLKAGRVLNDHDSLMRHLTASERKACLVSGDTKVGDTNDEMQKPSVLMHMVIQGNRAPLENSRKEKHKVSSTPEGGNSNEGHEMKKDSCCCVM | soluble
4 | MQTSPLLTQLMEALRCLPGVGPKSAQRMAFTLLQRDRSGGMRLAQALTRAMSEIGHCADCRTFTEQEVCNICSNPRRQENGQICVVESPADIYAIEQTGQFSGRYFVLMGHLSPLDGIGPDDIGLDRLEQRLAEEKITEVILATNPTVEGEATANYIAELCAQYDVEASRIAHGVPVGGELEMVDGTTLSHSLAGRHKIRF | soluble
5 | MGIKHLNLTVADVVAAREFLEKYFGLTCSGTRGNAFAVMRDNDGFILTLMKGKEVQYPKTFHVGFPQESEEQVDKINQRLKEDGFLVEPPKHAHAYTFYVEAPGGFTIEVMC | soluble
6 | MSSSLQSNRQSLNRKVAVMGYPHVGKSALVLRFTQNIFPERYESTIEDQHSKHIAAFHRDYHLRVTDTAGQQEYTVFPRSCSLDINGFILVYAIDDRKSFEMCSNIYEKIVRTYGDTSIPIVIVGNKTDLSTQRVVRAEEGEELARQWDAKFVEITARESNRVHEVFELLLREIEISRGNLSPTERPNGNSPKRNPFKDDGKPCSIS | not soluble
7 | MTENCCVPGGTVMILSCSGGSNVGQLSNQAAVELTREGVGKMFCLAGIGGQLSGFVQSARDVPEMVTIDGCSVGCAKAILEKARVPLKSYLVLTDLGIEKNKNFELSSHDIRRVKEAVKALLFEK | soluble
8 | MSFRTIEWRDDKVVMIDQTRLPGEEVYCEYADYKSVAEAIRGMVIRGAPAIGVAAAMGVALGAREIIADTYESFFRQMENVCDVMARTRPTAVNLFWAIERMKRVADENRDKPLDQLREILKTEAIRIEQEDLELCKAIGRHGAALIPEGATVLTHCNAGGLATAGYGTALGVIRAAHDAGKKIQVFADETRPWLQGARLTAWELMKDGIPVTLISDNMAGFFMKRGEIACCVVGADRIAANGDTANKIGTYSVAVLAKENNIPFYVAAPTTTLDLSLENGDQIPIEERHSREVTHLHGFPVAPEGIRVRNPAFDVTPARYISAIITEQGVVSGDYVTGLRGLVAPLEHHHHHH | not soluble
9 | MGSDKIHHHHHHMNTAAIYRQYQTYVRSDKSGWALDGCSDSALIAQAKQPGLHLKMCINRFDSGITLSRMRGGGTGAFPTEIHNFSHNCALFVMVSGQNRLQMGGREYRPSAGEIWLVRGELADVSETLLPDSGGMCALHLDFSLEKLRRWHDEGLLDERLFSPQTIGRFALQRLAQNAGTLTAAACPLLQRPFESDGFGLLADEADALELSARLLRFTFRRHDNGYRRRRIDEAADILNSEFARPLTIAEIARRVGLNECYLKRYFKAQTGETVAGRLRRLRLEHALALIESGSTIQAAMHFCGYRHAGRFNEAFRRHYGFLPSDVKKC | not soluble
10 | MLETDLEARMQILRESGFQESQGDDDTFAQRAEWFYQGRPLLLSLCLDLYNGYVTLLGRSSHQTRLKPTTSLPNQLLQDDDDCISDIDSVSEVSSEVESTLSFQQMKDPTAVSEKVDELVSQLVTASLDKEILKHELLHKDQQFHEASKTIELLKKFVMLLEMEKEVAVEENANLGYKLTSLLEENRELATEALFMKNEAVGLARCVLKMRDDHFHKVCILQNRIYSLQASRNSEPVSDKVSYGCFGLDKHKTKKKKENKTEEKKPGFKWLKKLNTINLFTKCSLNPSAAAPSCCTFDLPY | not soluble
11 | MVDNIEQQVYELVRPYAGTYLFNIKQVELTPEIDLDTDLSIDELEAEDLMNKFFEELNVERGNFRIETYFPNHPFSWHPFKKTEPVPVPDFTISMLIESAKAGKWLYD | not soluble
12 | MAPFSPASSDVLVIGGGPSGTALSAELAARGLDVQQLAPHPPRPFPATYGAWLGDLPTWARGCAEQVWTDVRAYTGPQPTSLGQPYALLDNAALLRTLRGLADWTWVEGAALHAERSGAGWTVYGAGGERWQTRLVVDASGHGALVSPVRFPGGAALQTAYGVVARFRRPPVTPGSMVWMDYRTPAPELKRGEATFLYAMHLGGDRYFVEETSLIARPAPTRAELRRRLLARLSAQGTPPHATESEEWVAFPMNAQAPAPGGVLAYGAAAGRVHPVSGFQVAGALSDAPGVATAIATALCQGKDAAAAGWAALWSPERRAAREVHLLGVGALLGLERAELPHFFGTFFGLPREQWARFLHPDTDAGTLARTMLRVFAQTGGRVRLPLARAALAQPAASGRALAAAAGLKILEHHHHHH | not soluble
13 | MLFTEMEIEIPKAVFEELQLYIEYLQEKTGKTIDPMAAIGNILQTYFENNGLWGVSEEDFKEKAKIAVKKLLTKKAKKDKPLLTKKVEKLLTQAVEIEQVPAKTAGQIAYQAKALVQVTFPHRDPKTPYYRCDSGKYSLIITADPDHGIPYGTYPRLITCWLVTEIVRTNSRRIVLGKCFSDFLRSIGVGLDSRTRKQVEQQIKRLFSADIKLKYNSKESWQFQRCNVATKAAMWWDTKNPDQFTLDESFVVVGEDFYAMALNAPFPIDLRALAALKQSPMALDIYMWLTLRMCHLAAPYPLSWPQLKSQFGPETSDLDNFRTKFKDALKKVRVVYPHAKLSVNAKELTLFPSPTHVQKAVKRVAALEHHHHHH | soluble
14 | MGSDKIHHHHHHVIRRAKPLLGTLVEIAAESLPHSGSEIPLEDKALEAAMTAAFSRVTHIGRLLSFHQQDSELNQLNRQPGTWIRVSQDSLRVLKLAKWLGKASNNLFNCTVGGEMMSRGALPAYLGMPLLLQGEWQDIEIKDNQVRLARPLILTLDGIAKGYAVDMAVSELRRAGVGGGWVNAGGDLRVFGSASLNVLCRGPKGLSQKICVSNMALASSRVSQTLSHDYPALLLPTGNVTDVNIDLESERIVSVSAPFAWRADALTKVAGYLSSDSAADKIAHLGGRLVSFE | not soluble
15 | MGSDKIHHHHHHMKIARLNLWHVPLTSHTAYYMADGKTCDTVETVVIAVQTDTGITGWGEVCPIPHYLPAYARGVAPALTELAPVILGADPVGVGALMERVDAVLHGHPYAKSALDIALWDITGQVAGLPLHALLGGWRAADMPLYHSITCIAPDDMARIAREAQAQGITQFQVKLGASGDWQTDVERLAKVREAVGPGPLVYGDWNCGATSLEAIRVGRAVAQLDIMLEQPCATLEDCARVQRATGLPMKIDELAHDTASLLTAHRLGIMDAVALKLSKFGGLSTTRRARDLCLHLGARMCIEDTWGSDITTAALLHLGAASEPGRVLNVCDLSGYVAPRLAPDAPVRANGRIAPPEGAGLGITVDRGALGVPDLILD | not soluble
16 | MTGSATRFGGSPGPVFALEKGERVEQMKLFKTYKEQVELLGQRGMQIDNSERAEKLLAQLNYYRLSGYWYPMRRFSPQNGIAQDEFVDGASFDLVVALYEFDERLRHSVFIELDRVELAIQTRLGHELGRLDPLIYLDPQRLGARASQRGKGERTVHEVWIGKYQSALKASKEDFVAHHNSKYGGTLPIWAAVEVMDWGMLSYLYGMSPNIVRKRIAEPCGLTGPQLESWLKSLNILRNYAAHHARMFNRVYDIKPKLNNDPKLTPVANRMNRVFGQLSMIQYLHHQLGLSQADRLTRLFNTYPHNPIVPLSRTGAPENWQELALWVP | not soluble
17 | SDNLSSEEIQQRAHQITDESLESTRRILGLAIESQDAGIKTITMLDEQKEQLNRIEEGLDQINKDMRETEKTLTELNKCCGLCVCPCNRTKNFESGKAYKTTWGDGGENSPCNVVSKQPGPVTNGQLQQPTTGAASGGYIKRITNDAREDEMEENLTQVGSILGNLKDMALNIGNEIDAQNPQIKRITDKADTNRDRIDIANARAKKLIDS | soluble
18 | GSSKSWANHENKTVNKITVVGGGELGIACTLAISAKGIADRLVLLDLSEGTKGATMDLEIFNLPNVEISKDLSASAHSKVVIFTVNSLGSSQSYLDVVQSNVDMFRALVPALGHYSQHSVLLVASQPVEIMTYVTWKLSTFPANRVIGIGCNLDSQRLQYIITNVLKAQTSGKEVWVIGEQGEDKVLTWSGQEEVVSHTSQVQLSNRAMELLRVKGQRSWSVGLSVADMVDSIVNNKKKVHSVSALAKGYYDINSEVFLSLPCILGTNGVSEVIKTTLKEDTVTEKLQSSASSIHSLQQQLKL | soluble
19 | MNHHLLSQAHLDKEKLVILVKEDEKMNSMHKDKPFFPLLIDYMSSGPVVAMLWEGCDVVKRARVILGEELEVGEFRSIFYDLVVRDTHKGCHCSDSVASANREYVLWFEEFKEGTRFD | not soluble
20 | MSLVNSLTHYEILRIPSDATQDEIKKAYRNRLLNTHPDKLSKSIHDTVSNVTINKIQDAYKILSNIKTRREYDRLILENYKRQGFHNCGDGLDEFSLDDFSFDEDKLEFMMNCPRCQFVGGFHFSESLLDECIDNVDAMERSHSGYQLLTQCSACSLWLKVNFDIEEEQEGQ | not soluble
21 | MSHVSLQEFLKTEPDGTLEVVAEQYNTTLLEVVRNLPSSTVVPGDKFDTVWDTVCEWGNVTTLVHTADVILEFSGELPSGFHRHGYFNLRGKHGMSGHIKAENCTHIALIERKFMGMDTASILFFNKEGSAMLKIFLGRDDHRQLLSEQVSAFHTLAASLKEHA | soluble
22 | DIQMTQSPSSLSATLGGKVTITCKASQDINKYIAWYQHKPGKGPRLLIHYTSTLQPGNPSRFSGSGSGRDYSFSISNLEAEDIAIYYCLQYDNLQRTFGGGTKVEIKRADAAPTVSIFPPSSEQLTSGGASVVCFLNNFYPKDINVKWKIDGSERQNGVLNSWTDQDSKDSTYSMSSTLTLTKDEYERHNSYTCEATHKTSTSPIVKSFNRNE | soluble
23 | MARPRKPLLSTDRIVETARALVDAEGLAAVSTRRLAAELGVSGPSLYNHFRTKDEILEAVADSVSAQVDLSMFEDGREWRTALHDWAVSYRTALRDHPNIVPVLAHGPGRRPAALHLADAVYGAMVRAGWPAAQATSIGALMRYFVMGSALGSFAGGFVDDAGAYDPADYPHLQQAHLLAEQQEKIDERAFETGLTALLDGLAQQYAQVAQGV | not soluble
24 | MQVNFSSFLDNFFAMQVCREMTRNDVKFAISPQFLRISRHPHIP | not soluble
25 | MAHHHHHHMGPRKSNAFASGKDDGAAAGKVRKVGGNGVGGSSATNSGSHKHGGAAAATMADIYTNEERAFLESQLALFTSGGGGSGGTDFARMTKEQWFAGLPTLVSATEKLLQAAADRYQQTCRERAAAAASVNGAQNAGSLPSADSSGVGKHGTTASSSHANSCTAEGIAPSGVAGSSDHRSTPAGGTPAQFAEENAYIIAQAQQLQWYPFTYQRWVELLLEPGKYHTACNDGGLRGDAIQTSLRRCILVTYPAVEGGDVI | soluble
